Assays:
Assay type in all cases: biochemical
[1] = Carboxylate reductase activity assay, pimelate to pimelate semialdehyde (NADPH consumption); conditions: 2 mM pimelate, enhanced by gene product of sfp, room temperature, 20 min, against empty vector control, FIG. 10
Protocol: A sequence encoding a HIS-tag was added to the genes from Segniliparus rugosus and Segniliparus rotundus that encode the carboxylate reductases of SEQ ID NOs: 4 and 7, respectively (see FIG. 7), such that N-terminal HIS tagged carboxylate reductases could be produced. Each of the modified genes was cloned into a pET Duet expression vector along with a sfp gene encoding a HIS-tagged phosphopantetheine transferase from Bacillus subtilis, both under the T7 promoter. Each expression vector was transformed into a BL21[DE3] E. coli host and the resulting recombinant E. coli strains were cultivated at 37° C. in a 250 mL shake flask culture containing 50 mL LB media and antibiotic selection pressure, with shaking at 230 rpm. Each culture was induced overnight at 37° C. using an auto-induction media.
The pellet from each induced shake flask culture was harvested via centrifugation. Each pellet was resuspended and lysed via sonication, and the cell debris was separated from the supernatant via centrifugation. […]
Enzyme activity assays (i.e., from pimelate to pimelate semialdehyde) were performed in triplicate in a buffer composed of a final concentration of 50 mM HEPES buffer (pH=7.5), 2 mM pimelate, 10 mM MgCl2, 1 mM ATP and 1 mM NADPH. […] The consumption of NADPH was monitored by absorbance at 340 nm.

[2] = Carboxylate reductase activity assay, N7-acetyl-7-aminoheptanoate to N7-acetyl-7-aminoheptanal (NADPH consumption); conditions: 2 mM N7-acetyl-7-aminoheptanoate, enhanced by gene product of sfp, room temperature, 20 min, against empty vector control, FIG. 12
Protocol: The activity of each of the N-terminal His-tagged carboxylate reductases of SEQ ID NOs: 3, 6, and 7 (see Examples 4, and FIG. 7) for converting N7-acetyl-7-aminoheptanoate to N7-acetyl-7-aminoheptanal was assayed in triplicate in a buffer composed of a final concentration of 50 mM HEPES buffer (pH=7.5), 2 mM N7-acetyl-7-aminoheptanoate, 10 mM MgCl2, 1 mM ATP, and 1 mM NADPH. The assays were initiated by adding purified carboxylate reductase and phosphopantetheine transferase or the empty vector control to the assay buffer containing the N7-acetyl-7-aminoheptanoate then incubated at room temperature for 20 min. The consumption of NADPH was monitored by absorbance at 340 nm.

[3] = Carboxylate reductase activity assay, pimelate semialdehyde to heptanedial (NADPH consumption); conditions: 2 mM pimelate semialdehyde, enhanced by gene product of sfp, room temperature, 20 min, against empty vector control, FIG. 13
Protocol: The N-terminal His-tagged carboxylate reductase of SEQ ID NO 7 (see Example 4 and FIG. 7) was assayed using pimelate semialdehyde as substrate. The enzyme activity assay was performed in triplicate in a buffer composed of a final concentration of 50 mM HEPES buffer (pH=7.5), 2 mM pimelate semialdehyde, 10 mM MgCl2, 1 mM ATP and 1 mM NADPH. The enzyme activity assay reaction was initiated by adding purified carboxylate reductase and phosphopantetheine transferase or the empty vector control to the assay buffer containing the pimelate semialdehyde and then incubated at room temperature for 20 min. The consumption of NADPH was monitored by absorbance at 340 nm.

[4] = Thioesterase enzyme activity assay, pimeloyl-CoA to pimelate (release of CoA, Ellman's reagent); conditions: 667 μM pimeloyl-CoA, 0.8 μM enzyme, pH 7.4, 37° C., 20 min, relative to empty vector control, FIG. 8
Protocol: A sequence encoding an N-terminal His tag was added to the tesB gene from Escherichia coli that encodes a thioesterase (SEQ ID NO 1, see FIG. 7), such that an N-terminal HIS tagged thioesterase could be produced. The modified tesB gene was cloned into a pET15b expression vector under control of the T7 promoter. The expression vector was transformed into a BL21[DE3] E. coli host. The resulting recombinant E. coli strain was cultivated at 37° C. in a 500 mL shake flask culture containing 50 mL Luria Broth (LB) media and antibiotic selection pressure, with shaking at 230 rpm. The culture was induced overnight at 17° C. using 0.5 mM IPTG.
The pellet from the induced shake flask culture was harvested via centrifugation. The pellet was resuspended and lysed in Y-Per™ solution (ThermoScientific, Rockford, Ill.). The cell debris was separated from the supernatant via centrifugation. […]
The enzyme activity assay was performed in triplicate in a buffer composed of 50 mM phosphate buffer (pH=7.4), 0.1 mM Ellman's reagent, and 667 μM of pimeloyl-CoA (as substrate). […] The release of Coenzyme A was monitored by absorbance at 412 nm. The absorbance associated with the substrate only control, which contained boiled enzyme, was subtracted from the active enzyme assay absorbance and compared to the empty vector control.

B1: SEQ ID NO 4: Segniliparus rugosus carboxylate reductase, Genbank Accession No. EFV11917.1 (protein, listed as Segniliparus rugosus)
chain: MGDGEERAKRFFQRIGELSATDPQFAAAAPDPAVVEAVSDPSLSFTRYLDTLMRGYAERPALAHRVGAGYETISYGELWARVGAIAAAWQADGLAPGDFVATVGFTSPDYVAVDLAAARSGLVSVPLQAGASLAQLVGILEETEPKVLAASASSLEGAVACALAAPSVQRLVVFDLRGPDASESAADERRGALADAEEQLARAGRAVVVETLADLAARGEALPEAPLFEPAEGEDPLALLIYTSGSTGAPKGAMYSQRLVSQLWGRTPVVPGMPNISLHYMPLSHSYGRAVLAGALSAGGTAHFTANSDLSTLFEDIALARPTFLALVPRVCEMLFQESQRGQDVAELRERVLGGRLLVAVCGSAPLSPEMRAFMEEVLGFPLLDGYGSTEALGVMRNGIIQRPPVIDYKLVDVPELGYRTTDKPYPRGELCIRSTSLISGYYKRPEITAEVFDAQGYYKTGDVMAEIAPDHLVYVDRSKNVLKLSQGEFVAVAKLEAAYGTSPYVKQIFVYGNSERSFLLAVVVPNAEVLGARDQEEAKPLIAASLQKIAKEAGLQSYEVPRDFLIETEPFTTQNGLLSEVGKLLRPKLKARYGEALEARYDEIAHGQADELRALRDGAGQRPVVETVVRAAVAISGSEGAEVGPEANFADLGGDSLSALSLANLLHDVFEVEVPVRIIIGPTASLAGIAKHIEAERAGASAPTAASVHGAGATRIRASELTLEKFLPEDLLAAAKGLPAADQVRTVLLTGANGWLGRFLALEQLERLARSGQDGGKLICLVRGKDAAAARRRIEETLGTDPALAARFAELAEGRLEVVPGDVGEPKFGLDDAAWDRLAEEVDVIVHPAALVNHVLPYHQLFGPNVVGTAEIIRLAITAKRKPVTYLSTVAVAAGVEPSSFEEDGDIRAVVPERPLGDGYANGYGNSKWAGEVLLREAHELVGLPVAVFRSDMILAHTRYTGQLNVPDQFTRLVLSLLATGIAPKSFYQQGAAGERQRAHYDGIPVDFTAEAITTLGAEPSWFDGGAGFRSFDVFNPHHDGVGLDEFVDWLIEAGHPISRIDDHKEWFARFETAVRGLPEAQRQHSLLPLLRAYSFPHPPVDGSVYPTGKFQGAVKAAQVGSDHDVPHLGKALIVKYADDLKALGLL
[1]
  carboxylate reductase activity for converting pimelate to pimelate semialdehyde (NADPH consumption, absorbance at 340 nm): accepted pimelate as substrate

B2: SEQ ID NO 7: Segniliparus rotundus carboxylate reductase, Genbank Accession No. ADG98140.1 (protein, listed as Segniliparus rotundus)
chain: MTQSHTQGPQASAAHSRLARRAAELLATDPQAAATLPDPEVVRQATRPGLRLAERVDAILSGYADRPALGQRSFQTVKDPITGRSSVELLPTFDTITYRELRERATAIASDLAHHPQAPAKPGDFLASIGFISVDYVAIDIAGVFAGLTAVPLQTGATLATLTAITAETAPTLFAASIEHLPTAVDAVLATPSVRRLLVFDYRAGSDEDREAVEAAKRKIADAGSSVLVDVLDEVIARGKSAPKAPLPPATDAGDDSLSLLIYTSGSTGTPKGAMYPERNVAHFWGGVWAAAFDEDAAPPVPAINITFLPLSHVASRLSLMPTLARGGLMHFVAKSDLSTLFEDLKLARPTNLFLVPRVVEMLYQHYQSELDRRGVQDGTREAEAVKDDLRTGLLGGRILTAGFGSAPLSAELAGFIESLLQIHLVDGYGSTEAGPVWRDGYLVKPPVTDYKLIDVPELGYFSTDSPHPRGELAIKTQTILPGYYKRPETTAEVFDEDGFYLTGDVVAQIGPEQFAYVDRRKNVLKLSQGEFVTLAKLEAAYSSSPLVRQLFVYGSSERSYLLAVIVPTPDALKKFGVGEAAKAALGESLQKIARDEGLQSYEVPRDFIIETDPFTVENGLLSDARKSLRPKLKEHYGERLEAMYKELADGQANELRDIRRGVQQRPTLETVRRAAAAMLGASAAEIKPDAHFTDLGGDSLSALTFSNFLHDLFEVDVPVGVIVSAANTLGSVAEHIDAQLAGGRARPTFATVHGKGSTTIKASDLTLDKFIDEQTLEAAKHLPKPADPPRTVLLTGANGWLGRFLALEWLERLAPAGGKLITIVRGKDAAQAKARLDAAYESGDPKLAGHYQDLAATTLEVLAGDFSEPRLGLDEATWNRLADEVDFISHPGALVNHVLPYNQLFGPNVAGVAEIIKLAITTRIKPVTYLSTVAVAAGVEPSALDEDGDIRTVSAERSVDEGYANGYGNSKWGGEVLLREAHDRTGLPVRVFRSDMILAHQKYTGQVNATDQFTRLVQSLLATGLAPKSFYELDAQGNRQRAHYDGIPVDFTAESITTLGGDGLEGYRSYNVFNPHRDGVGLDEFVDWLIEAGHPITRIDDYDQWLSRFETSLRGLPESKRQASVLPLLHAFARPGPAVDGSPFRNTVFRTDVQKAKIGAEHDIPHLGKALVLKYADDIKQLGLL
[1]
  carboxylate reductase activity for converting pimelate to pimelate semialdehyde (NADPH consumption, absorbance at 340 nm): accepted pimelate as substrate
[2]
  carboxylate reductase activity for converting N7-acetyl-7-aminoheptanoate to N7-acetyl-7-aminoheptanal (NADPH consumption, absorbance at 340 nm): accepted N7-acetyl-7-aminoheptanoate as substrate
[3]
  carboxylate reductase activity for converting pimelate semialdehyde to heptanedial (NADPH consumption, absorbance at 340 nm): accepted pimelate semialdehyde as substrate

B3: gene product of tesB: Escherichia coli thioesterase encoded by tesB, GenBank Accession No. AAA24665.1 (protein, listed as Escherichia coli)
chain: MSQALKNLLTLLNLEKIEEGLFRGQSEDLGLRQVFGGQVVGQALYAAKETVPEERLVHSFHSYFLRPGDSKKPIIYDVETLRDGNSFSARRVAAIQNGKPIFYMTASFQAPEAGFEHQKTMPSAPAPDGLPSETQIAQSLAHLLPPVLKDKFICDRPLEVRPVEFHNPLKGHVAEPHRQVWIRANGSVPDDLRVHQYLLGYASDLNFLPVALQPHGIGFLEPGIQIATIDHSMWFHRPFNLNEWLLYSVESTSASSARGFVRGEFYTQDGVLVASTVQEGVMRNHN
[4]
  thioesterase activity for converting pimeloyl-CoA to pimelate (released CoA, absorbance at 412 nm): accepted pimeloyl-CoA as substrate

From patent publication US9580731B2, “Methods of producing 7-carbon chemicals via c1 carbon chain elongation associated with coenzyme B synthesis” (INVISTA North America S.á r.l., priority 2012, dated 2017)
